One assay has as its system food intake. The experiment in a line: Food intake in mice. The format is in vivo. Here is the method: Mice were housed in individual cages and food intake was measured at 0.5, 1, and 2 hours.
Mice were subcutaneously injected with 0.15 μmol/kg or 3 μmol/kg LEAP2.

The target of the next assay is T1, endogenous LEAP2 (Mus musculus, UniProt Q91V13).
T1 construct: The mature form of LEAP2 found in circulation is a 40 amino acid cationic bicyclic peptide; from tissue; host or cells: live fasted mice; circulating endogenous LEAP2
T1 sequence (Q91V13 37-76): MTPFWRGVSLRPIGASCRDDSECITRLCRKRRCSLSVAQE
The experiment in a line: Growth hormone release after fasting and anti-LEAP2 antibody treatment. The format is in vivo, mice. Particulars: 10 mg/kg i.p. after 24 hour fasting. Here is the method: FIG. 10C illustrates the experimental design for evaluating the impact of anti-LEAP2 antibodies on growth hormone release. Following a 24 hour fasting period, a baseline blood sample was taken, and anti-LEAP2 antibodies (10 mg/kg) were administered by intraperitoneal injection. Growth hormone levels were determined at 5, 10, 30, 60, 90, and 120 minutes post-injection.

Assay [1] in a line: Growth hormone infusion during chronic calorie restriction in LEAP2-expressing mice. It counts as in vivo. The conditions noted are these: growth hormone pumps 0.5 μg/hr s.c. Here is the method: As described above, two weeks before initiation of calorie restriction, 2-3 month-old male mice were administered AAV-LEAP2 or AAV-GFP by tail vein injection. Diet treatment groups and measurements were the same as above. For growth hormone infusion, Alzet® osmotic mini-pumps filled with recombinant rat growth hormone (GroPep Bioreagents) or vehicle were implanted subcutaneously in the interscapular region. Growth hormone concentration in the pumps was 2 mg/ml and the growth hormone was delivered at a rate of 0.25 μl/hr (0.5 μg/hr).
FIG. 8A illustrates the experimental design for growth hormone infusion during chronic calorie restriction. The delivery efficiency of growth hormone was confirmed in a separate group of naïve mice kept in ad libitum conditions over 2 weeks. […] Osmotic pumps were implanted 3 days before initiation of calorie restriction. […] In LEAP2-expressing mice implanted with growth hormone pumps, 60% were able to maintain stable levels of blood glucose and survived to the end of the experiment. […] FIG. 8C presents a Kaplan-Meier survival curve of the mice from this experiment.

`CCCCCCCC(=O)OC[C@H](NC(=O)[C@H](CO)NC(=O)CN)C(=O)N[C@@H](Cc1ccccc1)C(=O)N[C@@H](CC(C)C)C(=O)N[C@@H](CO)C(=O)N1CCC[C@H]1C(=O)N[C@@H](CCC(=O)O)C(=O)N[C@@H](Cc1c[nH]cn1)C(=O)N[C@@H](CCC(N)=O)C(=O)N[C@@H](CCCNC(=N)N)C(=O)N[C@H](C(=O)N[C@@H](CCC(N)=O)C(=O)N[C@@H](CCC(N)=O)C(=O)N[C@@H](CCCNC(=N)N)C(=O)N[C@@H](CCCCN)C(=O)N[C@@H](CCC(=O)O)C(=O)N[C@@H](CO)C(=O)N[C@@H](CCCCN)C(=O)N[C@@H](CCCCN)C(=O)N1CCC[C@H]1C(=O)N1CCC[C@H]1C(=O)N[C@@H](C)C(=O)N[C@@H](CCCCN)C(=O)N[C@@H](CC(C)C)C(=O)N[C@@H](CCC(N)=O)C(=O)N1CCC[C@H]1C(=O)N[C@@H](CCCNC(=N)N)C(=O)O)C(C)C` [ghrelin]: the food intake result in the assay on food intake (ghrelin 0.03 μmol/kg s.c.) is “only slightly increased”; with food intake (ghrelin 0.15 μmol/kg s.c., 1 and 2 hour time points), “significantly promote food intake”.

B1: M18: mouse hybridoma anti-LEAP2 monoclonal antibody, VH SEQ ID NO:9, VL SEQ ID NO:10 (antibody, V domains shown)
VH: EIQLQQSGPELMKPGASVKISCKASGYSFTNYYIHWVKQSHGKSLEWIGYIDPFNGGTNYNQKFKGKATLTVDKSSSTAYMHLSSLTFEDSAVYYCARRGYYYGFTYWGQGTLVTVSA
VL: DIVLTQSPASLAVSLGQRATISCKASQSVDYDGDSYMNWYQQKPGQPPKLLIYTASNLESGIPARFSGSGSGTDFTLNIHPVEEEDAATYYCQQSNEDPYTFGGGTKLEIK
B1: the “total amount of growth hormone released (AUC)” value with endogenous LEAP2 is listed as “increased the total amount of growth hormone released”. The “peak of growth hormone secretion” value with endogenous LEAP2 (versus control antibody) was “increased the peak of growth hormone secretion”.

B2: growth hormone: recombinant rat growth hormone (GroPep Bioreagents) delivered by Alzet osmotic mini-pumps (protein, UniProt P01244 27-216, looked up)
Somatotropin: FPAMPLSSLFANAVLRAQHLHQLAADTYKEFERAYIPEGQRYSIQNAQAAFCFSETIPAPTGKEEAQQRTDMELLRFSLLLIQSWLGPVQFLSRIFTNSLMFGTSDRVYEKLKDLEEGIQALMQELEDGSPRIGQILKQTYDKFDANMRSDDALLKNYGLLSCFKKDLHKAETYLRVMKCRRFAESSCAF
Turning to B2, in assay [1], the “LEAP2-expressing mice able to maintain stable blood glucose and surviving to the end of the experiment” value came out at 60%.

These data come from patent US11548942B2, “Methods of treating a wasting syndrome, increasing growth hormone levels, and increasing GHSR activity with a LEAP2 antibody” (NGM Biopharmaceuticals, Inc., priority 2017, dated 2023).
